Data taken from the supplement of paper PMC7125110.
± gives the standard error. Variants at the floor of the assay were thinned out.

B1: glmS ribozyme (parent)
chain: AUAAAAGCGCCAGAACUACAGAAAUGUAGUUGACGAGGAGGAGGUUUAUCGAAUUUUCGGCGGAUGCCUCCAAA

Variants of: B1
Experiment: self-cleavage kobs at 640 uM GlcN6P; higher = faster cleavage; RNA array
Details: with glucosamine-6-phosphate
How it was run: (§1)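 In situ transcription by E. coli RNA polymerase produced barcoded ribozyme variants on sequenced MiSeq chips, and a hybridised Cy3 probe tracked them at 37 °C. Glucosamine-6-phosphate was flowed in at 40 μM to 10 mM in HEPES/KCl/Mg(OAc)2 buffer. kcat and KM were taken from weighted Michaelis–Menten fits of kobs values from exponential decay fits.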

Point of comparison: C50A G60C C68U, “self-cleavage kobs at 640 uM GlcN6P” value 4.56e-05 ± 2.1e-05 s⁻¹. Against it:
- G41U U55G A64G — within error, 8.52e-05 ± 3.1e-05 s⁻¹
- U54A G66A C67A — 33-fold higher, 0.00151 ± 0.00064 s⁻¹
- G43A A48G U56A C68G — lower, < 1e-05 s⁻¹
- U55G G66A C70G — 2.8-fold higher, 0.000126 ± 2.1e-05 s⁻¹
- C50U U57A C68A U69G C71G — within error, 8.81e-05 ± 3.4e-05 s⁻¹
- A42C U46G C71G — lower, < 1e-05 s⁻¹
- G44U A53G U65C — lower, < 1e-05 s⁻¹
- U45A U57G G62A — lower, < 1e-05 s⁻¹
- G43C A53U U55A U57A — lower, < 1e-05 s⁻¹
- G43U G51C G59C G62U C68U — lower, < 1e-05 s⁻¹
- G60U G66A — lower, < 1e-05 s⁻¹
- A53G G66C C71G — within error, 8.43e-05 ± 2.2e-05 s⁻¹
- C50G A52U G63C — lower, < 1e-05 s⁻¹
- G66U C68G C71A — within error, 5.91e-05 ± 2.3e-05 s⁻¹
- G41U A53U U56G G66A — within error, 5.34e-05 ± 1.9e-05 s⁻¹
- A48G U54C C67U — lower, < 1e-05 s⁻¹
- A53U C67G C68G — within error, 4.57e-05 ± 2.1e-05 s⁻¹
- G43U G63U C71G — lower, < 1e-05 s⁻¹
- U45G A52C U55C C70G — lower, < 1e-05 s⁻¹
- U54C G60C C67G — lower, < 1e-05 s⁻¹
- A52C G59A U65A — lower, < 1e-05 s⁻¹
- U49C A52U G62U — lower, < 1e-05 s⁻¹
- C50G G62A C68G — 3.5-fold higher, 0.000159 ± 4.6e-05 s⁻¹
- U55A G60C U65A — lower, < 1e-05 s⁻¹
- C58A G62C C70G — within error, 5.64e-05 ± 2.6e-05 s⁻¹

Variants of: B1
Experiment: self-cleavage kobs at 2500 uM GlcN6P; higher = faster cleavage; RNA array
Details: with glucosamine-6-phosphate
How it was run: as §1

Point of comparison: A6G G7U C70G, “self-cleavage kobs at 2500 uM GlcN6P” value 5.26e-05 ± 2.1e-05 s⁻¹. Against it:
- G41U U55G A64G — 2.8-fold higher, 0.000147 ± 4.4e-05 s⁻¹
- U54A G66A C67A — 31-fold higher, 0.00163 ± 0.00044 s⁻¹
- U55G G66A C70G — 3.9-fold higher, 0.000206 ± 4.7e-05 s⁻¹
- A6U C11A G62A — lower, < 1e-05 s⁻¹
- A42C U46G C71G — lower, < 1e-05 s⁻¹
- U45A U57G G62A — lower, < 1e-05 s⁻¹
- G60U G66A — lower, < 1e-05 s⁻¹
- C50G A52U G63C — lower, < 1e-05 s⁻¹
- A6C U55G G59U C61A A64C — lower, < 1e-05 s⁻¹
- G7A G40A C71A — lower, < 1e-05 s⁻¹
- G41U A53U U56G G66A — 4.2-fold higher, 0.000221 ± 4.9e-05 s⁻¹
- G43U G63U C71G — lower, < 1e-05 s⁻¹
- U45G A52C U55C C70G — lower, < 1e-05 s⁻¹
- A52C G59A U65A — lower, < 1e-05 s⁻¹
- A6C A48U C61U C70G — lower, < 1e-05 s⁻¹
- G7A C8G G9C C10G A12C G13A A14G C16A G41C G66U — lower, < 1e-05 s⁻¹
- U55A G60C U65A — lower, < 1e-05 s⁻¹
- G7A G40A A53U — lower, < 1e-05 s⁻¹
- G7U A12C A36C A39U U47C — lower, < 1e-05 s⁻¹
- G7C C50U C67A — lower, < 1e-05 s⁻¹
- A6G U54C G63C — lower, < 1e-05 s⁻¹

Variants of: B1
Experiment: self-cleavage kobs at 10000 uM GlcN6P; higher = faster cleavage; RNA array
Details: with glucosamine-6-phosphate
How it was run: as §1

For C50G G62A C68G, the “self-cleavage kobs at 10000 uM GlcN6P” value was 0.000111 ± 2.9e-05 s⁻¹.
